From patent US20220064233A1

Molecular target: 14R1 revertant mutant E
Assay: ELISA, epitope mapping

B1: monoclonal antibody 61D8 (IgG) (antibody, V domains shown)
VH: CKASGYSFTSYWMHWVKQRPGQGLEWIGMIDPSDSETKLNQQFKDKATLTVDTSSSTAYMQLTSPTSEDSVVYYCARGKMGGRFYFDYLGQGTTLTVSS
VL: ITCKASQDVGTAVVWYQQKPGQSPKLLIYWASTRHTGVPDRFTGSGFGTDFTLTISNVQSEDLADYFCQQFSSYPYTFGGGTKLEIKR
fold reduction in 61D8 binding (against 14R1): 30 fold
